# Experimental data published in the RNAGym collection of RNA variant scans (doi:10.7554/elife.80360).
# B1: CPEB3 Ribozyme (parent)
# chain: GGGGGCCACAGCAGAAGCGUUCACGUCGCGGCCCCUGUCAGAUUCUGGUGAAUCUGCGAAUUCUGCUGU
# Variants of: B1
# Assay: self-cleavage, relative activity (ratio to wild type); higher = more cleavage; co-transcriptional
row,Variant,self-cleavage
1,GGGGGCCACAGCAGAAGCGUUCACGUCGCGGCCCCUGUCAGAUACUGUUGAAUCUGCGAAUUCUGCUGU [U44A G48U],0.982
2,GGGGGCCACAGCAGAAGCGUUCACGUCGCGGCCCCUGUCAGAUACUGCUGAAUCUGCGAAUUCUGCUGU [U44A G48C],1.01
3,GGGGGCCACAGCAGAAGCGUUCACGUCGCGGCCCCUGUCAGAUACUGGUGAAUCUGCGAAUUGUGCUGU [U44A C63G],0.645
4,GGGGGCCACAGCAGAAGCGUUCACGUCGCGGCCCCUGUCAGAUACUGGUGAAUCUGCGAAUUUUGCUGU [U44A C63U],0.985
5,GGGGGCCACAGCAGAAGCGUUCACGUCGCGGCCCCUGUCAGAUAAUGGUGAAUCUGCGAAUUCUGCUGU [U44A C45A],0.886
6,GGGGGCCACAGCAGAAGCGUUCACGUCGCGGCCCCUGUCAGAUACUGGUGAAUCUGCUAAUUCUGCUGU [U44A G58U],0.951
7,GGGGGCCACAGCAGAAGCGUUCACGUCGCGGCCCCUGUCAGAUACUGGUGAAUCUGCAAAUUCUGCUGU [U44A G58A],0.963
8,GGGGGCCACAGCAGAAGCGUUCACGUCGCGGCCCCUGUCAGAUACUGGUGAAUCUGCGAAUUCCGCUGU [U44A U64C],0.76
9,GGGGGCCACAGCAGAAGCGUUCACGUCGCGGCCCCUGUCAGAUACUGGUGGAUCUGCGAAUUCUGCUGU [U44A A51G],0.936
10,GGGGGCCACAGCAGAAGCGUUCACGUCGCGGCCCCUGUCAGAUACUGGUGCAUCUGCGAAUUCUGCUGU [U44A A51C],0.939
11,GGGGGCCACAGCAGAAGCGUUCACGUCGCGGCCCCUGUCAGAUACUGGCGAAUCUGCGAAUUCUGCUGU [U44A U49C],0.922
12,GGGGGCCACAGCAGAAGCGUUCACGUCGCGGCCCCUGUCAGAUCCUGGUAAAUCUGCGAAUUCUGCUGU [U44C G50A],0.939
13,GGGGGCCACAGCAGAAGCGUUCACGUCGCGGCCCCUGUCAGAUACUGGUGAAUCUGCGAAGUCUGCUGU [U44A U61G],0.645
14,GGGGGCCACAGCAGAAGCGUUCACGUCGCGGCCCCUGUCAGAUACUGGUGAAUUUGCGAAUUCUGCUGU [U44A C54U],0.923
15,GGGGGCCACAGCAGAAGCGUUCACGUCGCGGCCCCUGUCAGAUCCUGGUGAAUCUGCGAAUUAUGCUGU [U44C C63A],0.542
16,GGGGGCCACAGCAGAAGCGUUCACGUCGCGGCCCCUGUCAGAUACUGGUGAAUCUGCGAAUUCUGAUGU [U44A C66A],0.758
17,GGGGGCCACAGCAGAAGCGUUCACGUCGCGGCCCCUGUCAGAUACUGGUGACUCUGCGAAUUCUGCUGU [U44A A52C],0.912
18,GGGGGCCACAGCAGAAGCGUUCACGUCGCGGCCCCUGUCAGAUACUGGUGAGUCUGCGAAUUCUGCUGU [U44A A52G],0.988
19,GGGGGCCACAGCAGAAGCGUUCACGUCGCGGCCCCUGUCAGAUACUGGUAAAUCUGCGAAUUCUGCUGU [U44A G50A],0.962
20,GGGGGCCACAGCAGAAGCGUUCACGUCGCGGCCCCUGUCAGAGUCUGGUGAAUCUGCGAAUUCUGCUGC [U43G U69C],1.03

row,Variant,self-cleavage
1,GGGGGCCACAGCAGAAGCGUUCACGUCGCGGCCCCUGUCAGAGUCUGGUGAAUCUGCGAAUUCUGCUGA [U43G U69A],0.954
2,GGGGGCCACAGCAGAAGCGUUCACGUCGCGGCCCCUGUCAGAUCCUGGUGAAUCUACGAAUUCUGCUGU [U44C G56A],0.7
3,GGGGGCCACAGCAGAAGCGUUCACGUCGCGGCCCCUGUCAGAUACUGGUGAAUCUUCGAAUUCUGCUGU [U44A G56U],0.677
4,GGGGGCCACAGCAGAAGCGUUCACGUCGCGGCCCCUGUCAGAGUCUGGUGAAUCUGCGAAUUCGGCUGU [U43G U64G],0.649
5,GGGGGCCACAGCAGAAGCGUUCACGUCGCGGCCCCUGUCAGAUACUUGUGAAUCUGCGAAUUCUGCUGU [U44A G47U],1
6,GGGGGCCACAGCAGAAGCGUUCACGUCGCGGCCCCUGUCAGAUACUAGUGAAUCUGCGAAUUCUGCUGU [U44A G47A],1.01
7,GGGGGCCACAGCAGAAGCGUUCACGUCGCGGCCCCUGUCAGAUCCUCGUGAAUCUGCGAAUUCUGCUGU [U44C G47C],0.963
8,GGGGGCCACAGCAGAAGCGUUCACGUCGCGGCCCCUGUCAGAUACUGGUGAAUCGGCGAAUUCUGCUGU [U44A U55G],0.551
9,GGGGGCCACAGCAGAAGCGUUCACGUCGCGGCCCCUGUCAGAUACUGGUGAAUCUGCGAGUUCUGCUGU [U44A A60G],0.725
10,GGGGGCCACAGCAGAAGCGUUCACGUCGCGGCCCCUGUCAGAUACGGGUGAAUCUGCGAAUUCUGCUGU [U44A U46G],0.981
11,GGGGGCCACAGCAGAAGCGUUCACGUCGCGGCCCCUGUCAGAUACCGGUGAAUCUGCGAAUUCUGCUGU [U44A U46C],0.993
12,GGGGGCCACAGCAGAAGCGUUCACGUCGCGGCCCCUGUCAGAGUCUGGUGAAUCUGCGAAGUCUGCUGU [U43G U61G],0.265
13,GGGGGCCACAGCAGAAGCGUUCACGUCGCGGCCCCUGUCAGAGUCUGGUGAAUCUGCGAAAUCUGCUGU [U43G U61A],0.701
14,GGGGGCCACAGCAGAAGCGUUCACGUCGCGGCCCCUGUCAGAGUCUGGUGAAUCCGCGAAUUCUGCUGU [U43G U55C],0.312
15,GGGGGCCACAGCAGAAGCGUUCACGUCGCGGCCCCUGUCAGAUCCUGGUGAAUCUGCGACUUCUGCUGU [U44C A60C],0.378
16,GGGGGCCACAGCAGAAGCGUUCACGUCGCGGCCCCUGUCAGAGUCUGGUGAAUCUGCGAAUCCUGCUGU [U43G U62C],0.437
17,GGGGGCCACAGCAGAAGCGUUCACGUCGCGGCCCCUGUCAGAGUCUGGUGAAUCUGCGAAUACUGCUGU [U43G U62A],0.529
18,GGGGGCCACAGCAGAAGCGUUCACGUCGCGGCCCCUGUCAGAUCGUGGUGAAUCUGCGAAUUCUGCUGU [U44C C45G],1
19,GGGGGCCACAGCAGAAGCGUUCACGUCGCGGCCCCUGUCAGAUACUGGUGAAUCUGCGAAUACUGCUGU [U44A U62A],0.838
